Data: patent US20250388684A1 (SICHUAN SWIFTBIO BIOTECHNOLOGY, published 2025)
Residue numbers refer to the chain shown, from its start. Like-named read-outs stand apart in the source and are kept apart here. Each block holds one binder with its values, some of them ahead of it.

Legend:
human CCR4 [1] = target: T1, human CCR4 (human, UniProt P51679 1-360); assay: FACS on HEK293T-h.CCR4 cells
T1 construct: whole, on cells; also called h.CCR4; HEK293T-h.CCR4
T1 sequence (looked up): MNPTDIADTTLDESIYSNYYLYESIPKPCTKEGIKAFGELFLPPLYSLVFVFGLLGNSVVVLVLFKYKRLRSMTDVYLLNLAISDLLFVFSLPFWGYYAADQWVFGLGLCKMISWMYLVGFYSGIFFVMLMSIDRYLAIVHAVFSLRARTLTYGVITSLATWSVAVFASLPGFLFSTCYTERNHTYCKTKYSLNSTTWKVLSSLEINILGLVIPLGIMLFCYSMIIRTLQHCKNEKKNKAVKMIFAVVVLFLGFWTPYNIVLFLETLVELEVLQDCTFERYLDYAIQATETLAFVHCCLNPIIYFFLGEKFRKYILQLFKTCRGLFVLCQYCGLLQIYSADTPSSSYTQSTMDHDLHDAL
Procedure: Evaluate the specificity of anti-human CCR8 mouse monoclonal antibodies using FACS. The experimental steps are as follows: digest HEK293T-h.CCR4 cells, centrifuge to collect the cells, and wash three times with pre-cooled PBS. Resuspend the cells in 1% BSA (in PBS), adding 3×10\hat{ }5 cells in a volume of 50 μL to each well of a 96-well V-bottom plate. Dilute the antibody to be tested in 1% BSA (in PBS) to 20 μg/mL, take 50 μL per well, and add it to the cells, resulting in a final antibody concentration of 10 μg/mL. Mix and incubate at 4° C. for 1 hour. Centrifuge to collect the cells and wash three times with pre-cooled PBS. Resuspend the cells in 50 μL of 1% BSA (in PBS), add 1 μL of fluorescent secondary antibody to each well, mix, and incubate at 4° C. for 0.5 hours. Centrifuge to collect the cells, wash three times with pre-cooled PBS, resuspend the cells in 200 μL of PBS, and analyze them.

[2] = target: T2, human CCR8 (C-C chemokine receptor type 8) (human, UniProt P51685 1-355); assay: FACS on HEK293T-h.CCR8 cells, mouse antibody
T2 construct: whole, on cells; also called h.CCR8; HEK293T-h.CCR8

cynomolgus monkey CCR8 [3] = target: T3, cynomolgus monkey CCR8 (cynomolgus monkey, UniProt G7NYJ2 1-355); assay: FACS on HEK293T-c.CCR8 cells, mouse antibody
T3 construct: whole, on cells; also called c.CCR8; HEK293T-c.CCR8

[4] = target: T2, human CCR8 (C-C chemokine receptor type …); assay: cell-based or functional assay
cynomolgus monkey CCR8 [5] = target: T3, cynomolgus monkey CCR8; assay: FACS on HEK293T-c.CCR8 cells
human CCR4 [6] = target: T1, human CCR4; assay: FACS on HEK293T-h.CCR4 cells; remark: listed apart in the source
Procedure: The specificity of humanized monoclonal antibodies against human CCR4 was assessed using FACS. HEK293T-h.CCR4 cells were collected, washed, and resuspended in 1% BSA (in PBS). Each well of a 96-well V-bottom plate received 3×10\hat{ }5 cells, followed by the addition of the test antibodies at a final concentration of 20 μg/mL and incubation at 4° C. for one hour. After washing, 1 μL of fluorescent secondary antibody (Biolegend, Catalog No.: 410708) was added, and the mixture was incubated. The cells were washed and resuspended for detection using a flow cytometer (Beckman, Model: CytoFLEX).

[7] = target: T2, human CCR8 (C-C chemokine receptor type …); assay: FACS on HEK293T-h.CCR8 cells, test 1
Procedure: (§1) The affinity of humanized monoclonal antibodies against human CCR8 was assessed using FACS. The experimental procedure was as follows: HEK293T-h.CCR8 cells were digested and collected by centrifugation, followed by three washes with pre-cooled PBS. The cells were resuspended in 1% BSA (in PBS), with 3×10\hat{ }5 cells added to each well of a 96-well V-bottom plate (50 μL per well). Prepare the antibody dilution series in 1% BSA (in PBS), starting from 40 μg/mL. Perform a 3-fold serial dilution across 10 concentration points. Add 50 μL per well to the cells, so that the final antibody concentration in the wells starts from 20 μg/mL. Mix thoroughly and incubate at 4° C. for 1 hour. The cells were collected by centrifugation, washed three times with pre-cooled PBS, resuspended in 50 μL 1% BSA (in PBS), and 1 μL of fluorescent secondary antibody (Biolegend, Catalog No.: 410708) was added to each well. The mixture was incubated at 4° C. for 30 minutes, followed by three washes with pre-cooled PBS. The cells were then resuspended in 200 μL PBS for detection.

[8] = target: T2, human CCR8 (C-C chemokine receptor type …); assay: FACS on HEK293T-h.CCR8 cells, test 2 (anti-human Alexa Fluor 647 secondary antibody)
Procedure: as §1

T2 sequence (P51685 whole entry): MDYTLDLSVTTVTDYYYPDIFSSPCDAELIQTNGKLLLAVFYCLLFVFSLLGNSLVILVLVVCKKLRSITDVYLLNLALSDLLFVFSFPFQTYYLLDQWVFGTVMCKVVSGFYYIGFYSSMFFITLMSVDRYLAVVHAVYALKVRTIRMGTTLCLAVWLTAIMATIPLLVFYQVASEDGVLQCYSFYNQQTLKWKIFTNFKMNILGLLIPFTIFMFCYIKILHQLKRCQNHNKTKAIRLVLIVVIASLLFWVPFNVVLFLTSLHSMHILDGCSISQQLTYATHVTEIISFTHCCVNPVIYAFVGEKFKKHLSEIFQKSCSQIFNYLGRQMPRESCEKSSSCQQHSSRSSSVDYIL
T3 sequence (G7NYJ2 entry or part of it): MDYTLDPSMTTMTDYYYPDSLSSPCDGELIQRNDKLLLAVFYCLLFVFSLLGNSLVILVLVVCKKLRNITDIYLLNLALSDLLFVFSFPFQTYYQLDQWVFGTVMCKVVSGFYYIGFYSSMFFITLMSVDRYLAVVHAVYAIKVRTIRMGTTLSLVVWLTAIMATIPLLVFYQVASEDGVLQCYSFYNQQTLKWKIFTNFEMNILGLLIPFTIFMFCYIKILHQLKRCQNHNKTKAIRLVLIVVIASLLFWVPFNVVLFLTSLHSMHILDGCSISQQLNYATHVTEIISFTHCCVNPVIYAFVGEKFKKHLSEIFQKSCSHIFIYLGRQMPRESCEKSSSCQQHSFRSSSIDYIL

B1: 96F1C4 (anti-human CCR8 mouse monoclonal antibody) (antibody, V domains shown)
VH: QVQLQQSGAELVRPGASVTLSCKASGYTFTDYEMHWVKQTPVHGLEWIGAFDPKTGGTAYNQKFKGKAILTADKSSSTAYMELRSLTSEDSAVYYCARRRFFDVWGAGTTVTVSS
VL: DAVMTQTPLSLPVSLGDQASISCRSSQSLEHSNGNTYLHWYLQKPGQSPQLLIYRVSNRFSGVLDRFSGSGSGTDFTLKISRVEAEDLGVYFCLQVTHVPFTFGTGTKLEIK
notes: Mouse antibody purified from hybridoma supernatant
binding result (human CCR4 [1]): no binding (tested: 10 µg/mL)
EC50 [2]: 160 pM

B2: 13F3H6 (anti-human CCR8 mouse monoclonal antibody) (antibody, V domains shown)
VH: EVQLVESGGGLVRPKGSLKFSCAASGFTFNAYAMNWVRQAPGKGLEWVARIRTKSNNYATYYADSVKDRFTISRDDSENMLYLQMNNLKTEDTAIYYCVRHKKVREGYAMDYWGQGTSVTVSS
VL: DIVLTQSPASLVLSLGQRATISCRASKSVSTSGYTYMHWYQQKPGQPPKLLIYLASNLESGVPARFSGSGSGTDFTLNIHPVEEEDAATYYCQHSRELPFTFGSGTKLEIK
notes: as for B1
binding result (human CCR4 [1]): no binding (tested: 10 µg/mL)
EC50 (cynomolgus monkey CCR8 [3]): 0.288 µg/mL
EC50 [2]: 370 pM

B3: 96F1C4-hz (humanized anti-human CCR8 monoclonal antibody, human IgG1) (antibody, V domains shown)
VH: QVQLVESGAEVKKPGSSVKVSCKASGYTFTDYEMHWVRQAPGQGLEWMGAFDPKTGGTAYAQKFQGRVTLTADKSTSTAYMELSSLRSEDTAVYYCARRRFFDVWGQGTLVTVSS
VL: DAVMTQTPLSLSVTPGQPASISCRSSQSLEHSNGNTYLHWYLQKPGQSPQLLIYRVSNRFSGVPDRFSGSGSGTDFTLKISRVEAEDVGVYYCLQVTHVPFTFGQGTKVEIKR
notes: Built in the pTT5-h.IgG1 vector
ADCC activity EC50 [4]: 0.0052 µg/mL
ADCP activity EC50 [4]: 0.107 µg/mL
Inhibition rate of CCL1-mediated cell migration (%) at 50 µg/mL, BaF3-h.CCR8 cells, Transwell [4]: 60.1%
binding result (cynomolgus monkey CCR8 [5]): no binding
binding result (human CCR4 [6]): no binding (tested: 20 µg/mL)
EC50 [7]: 0.0796 µg/mL

The remaining lines, values ahead:

ADCC activity EC50 [4]: 0.0148 µg/mL
binding result (cynomolgus monkey CCR8 [5]): no binding
binding result (human CCR4 [6]): no binding (tested: 20 µg/mL)
EC50 [7]: 0.322 µg/mL
B4: 76H1F11-hz (humanized anti-human CCR8 monoclonal antibody, human IgG1) (antibody, V domains shown)
VH: B3 VH with M34I, F51I, D52K, K54E, A72S, A97T, F101Y
VL: B3 VL with N33D, N35I

ADCC activity EC50 [4]: 0.00117 µg/mL
ADCP activity EC50 [4]: 0.0647 µg/mL
Inhibition rate of CCL1-mediated cell migration (%) at 50 µg/mL, BaF3-h.CCR8 cells, Transwell [4]: 73.5%
EC50 [8]: 0.0244 µg/mL
B5: 13F3H6-hz-eADCC (13F3H6-hz with ADCC-enhanced IgG1 Fc) (antibody)
heavy: EVQLVESGGGLVQPGESLRLSCAASGFTFNAYAMNWVRQAPGQGLEWVARIRTKSNNYATYYADSVKGRFTISRDDSKNTLYLEMNSLRAEDTAVYYCVRHKKVREGYAMDYWGQGTLVTVSSASTKGPSVFPLAPSSKSTSGGTAALGCLVKDYFPEPVTVSWNSGALTSGVHTFPAVLQSSGLYSLSSVVTVPSSSLGTQTYICNVNHKPSNTKVDKKVEPKSCDKTHTCPPCPAPELVGGPSVFLLPPKPKDTLMISRTPEVTCVVVDVSHEDPEVKFNWYVDGVEVHNAKTKPPEEQYNSTLRVVSVLTVLHQDWLNGKEYKCKVSNKALPAPIEKTISKAKGQPREPQVYTLPPSREEMTKNQVSLTCLVKGFYPSDIAVEWESNGQPENNYKTTPLVLDSDGSFFLYSKLTVDKSRWQQGNVFSCSVMHEALHNHYTQKSLSLSPGK
light: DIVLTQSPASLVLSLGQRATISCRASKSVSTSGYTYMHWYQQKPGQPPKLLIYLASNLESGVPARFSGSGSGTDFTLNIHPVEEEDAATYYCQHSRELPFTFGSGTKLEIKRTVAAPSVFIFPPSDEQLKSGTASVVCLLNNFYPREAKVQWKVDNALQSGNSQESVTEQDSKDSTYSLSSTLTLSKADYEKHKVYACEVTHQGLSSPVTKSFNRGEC
notes: also called 13F3H6-eADCC
